Experimental findings from article PMC2133023 are described below.

The target in the test is GAL4 DNA-binding domain fusion of the neuroglian^167 cytoplasmic domain with Y1234F (Drosophila). Description: two-hybrid.

“GAL4 activation domain–Drosophila ankyrin fusion protein (from UniProt Q24241 1-1549) (natural protein)”: the reduction of binding against wild type (β-galactosidase) was determined as 50%.
